Article PMC6721657

Biological target: full length extracellular fragment of FGFR1-IIIc fused to the Fc (UniProt P11362)
Assay: BLI; FGFR1c-Fc loaded on Protein A biosensors (20 μg/mL, 600 s); FGF1 proteins 100 to 800 nM in solution; PBS, 25 °C, 1000 rpm; global fit with the 2:1 heterogeneous ligand model and steady state analysis; three independent experiments

Sequence of UniProt P11362 (P11362 22-376): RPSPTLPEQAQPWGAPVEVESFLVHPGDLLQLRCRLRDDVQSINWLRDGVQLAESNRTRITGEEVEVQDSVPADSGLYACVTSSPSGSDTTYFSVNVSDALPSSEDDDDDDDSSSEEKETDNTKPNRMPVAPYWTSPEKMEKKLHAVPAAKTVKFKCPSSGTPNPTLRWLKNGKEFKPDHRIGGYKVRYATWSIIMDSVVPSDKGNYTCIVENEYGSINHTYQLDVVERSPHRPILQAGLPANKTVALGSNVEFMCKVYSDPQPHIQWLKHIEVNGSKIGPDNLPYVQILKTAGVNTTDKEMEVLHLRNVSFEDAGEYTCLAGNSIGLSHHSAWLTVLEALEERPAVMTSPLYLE

KD1 (2:1 heterogeneous ligand model)	KD2 (2:1 heterogeneous ligand model)	Substance
1.02e-07	1.05e-07	FGF1 Q40P/S47I/H93G variant (Ala-FGF1 21-154) (ligand)
291 nM	152 nM	FGF1 R35E mutant (Ala-FGF1 21-154) (ligand)
477 nM	690 nM	FGF1 R35E/Q40P/S47I/H93G mutant (Ala-FGF1 21-154) (ligand)
46.9 nM	75.6 nM	wild-type fibroblast growth factor 1, truncated form (Ala-FGF1 21-154) (ligand)
